Assay results as given in the Human Domainome abundance scans (Beltran et al. 2025).
± gives the uncertainty stated by the source.

B1: Homeobox protein SIX3, residues 212 to 262; numbered along this chain, O95343 (parent)
chain: CFKERTRSLLREWYLQDPYPNPSKKRELAQATGLTPTQVGNWFKNRRQRDR

Variants of: B1
Assay: abundance fitness (aPCA) (normalised: wild type 0, dead -1); higher = more abundant; growth selection in yeast, the domain comes from the species named
Conditions: Homo sapiens

First: CFKERTRKLLREWYLQDPYPNPSKKRELAQATGLTPTQVGNWFKNRRQRDR
Second: CFKERTRSLCREWYLQDPYPNPSKKRELAQATGLTPTQVGNWFKNRRQRDR
The abundance fitness of the first is higher: 0.048 ± 0.061 for the first, -0.88 ± 0.28 for the second.

CFKERTRSLAREWYLQDPYPNPSKKRELAQATGLTPTQVGNWFKNRRQRDR and CFKERTRSLEREWYLQDPYPNPSKKRELAQATGLTPTQVGNWFKNRRQRDR are within error of each other in abundance fitness: -0.895 ± 0.058 for the first, -0.886 ± 0.084 for the second.

Compared with CFKERTGSLLREWYLQDPYPNPSKKRELAQATGLTPTQVGNWFKNRRQRDR, CFKERTSSLLREWYLQDPYPNPSKKRELAQATGLTPTQVGNWFKNRRQRDR is higher in abundance fitness: -0.261 ± 0.075 for the first, 0.006 ± 0.078 for the second.

Going from CFKERTFSLLREWYLQDPYPNPSKKRELAQATGLTPTQVGNWFKNRRQRDR to CFKERTVSLLREWYLQDPYPNPSKKRELAQATGLTPTQVGNWFKNRRQRDR, the abundance fitness rises from -0.419 ± 0.3 to -0.03 ± 0.043.

Compared with CFKERTMSLLREWYLQDPYPNPSKKRELAQATGLTPTQVGNWFKNRRQRDR, CFKERTPSLLREWYLQDPYPNPSKKRELAQATGLTPTQVGNWFKNRRQRDR is lower in abundance fitness: -0.128 ± 0.11 for the first, -0.702 ± 0.18 for the second.

CFKERTTSLLREWYLQDPYPNPSKKRELAQATGLTPTQVGNWFKNRRQRDR and CFKERTWSLLREWYLQDPYPNPSKKRELAQATGLTPTQVGNWFKNRRQRDR are within error of each other in abundance fitness: -0.403 ± 0.2 for the first, -0.091 ± 0.12 for the second.

CFKERTISLLREWYLQDPYPNPSKKRELAQATGLTPTQVGNWFKNRRQRDR and CFKERTNSLLREWYLQDPYPNPSKKRELAQATGLTPTQVGNWFKNRRQRDR are within error of each other in abundance fitness: 0.083 ± 0.19 for the first, 0.188 ± 0.15 for the second.

CFKERTHSLLREWYLQDPYPNPSKKRELAQATGLTPTQVGNWFKNRRQRDR and CFKERTYSLLREWYLQDPYPNPSKKRELAQATGLTPTQVGNWFKNRRQRDR are within error of each other in abundance fitness: 0.238 ± 0.49 for the first, 0.033 ± 0.15 for the second.

CFKERTESLLREWYLQDPYPNPSKKRELAQATGLTPTQVGNWFKNRRQRDR and CFKERTDSLLREWYLQDPYPNPSKKRELAQATGLTPTQVGNWFKNRRQRDR are within error of each other in abundance fitness: -0.181 ± 0.11 for the first, -0.26 ± 0.18 for the second.

CFKERTQSLLREWYLQDPYPNPSKKRELAQATGLTPTQVGNWFKNRRQRDR and CFKERTLSLLREWYLQDPYPNPSKKRELAQATGLTPTQVGNWFKNRRQRDR are within error of each other in abundance fitness: -0.137 ± 0.2 for the first, -0.272 ± 0.096 for the second.

First: CFKYRTRSLLREWYLQDPYPNPSKKRELAQATGLTPTQVGNWFKNRRQRDR
Second: CFKARTRSLLREWYLQDPYPNPSKKRELAQATGLTPTQVGNWFKNRRQRDR
The abundance fitness of the first is higher: -0.441 ± 0.28 for the first, -0.931 ± 0.2 for the second.

CFKNRTRSLLREWYLQDPYPNPSKKRELAQATGLTPTQVGNWFKNRRQRDR and CFKSRTRSLLREWYLQDPYPNPSKKRELAQATGLTPTQVGNWFKNRRQRDR are within error of each other in abundance fitness: -0.357 ± 0.42 for the first, -0.136 ± 0.065 for the second.

First: CFKFRTRSLLREWYLQDPYPNPSKKRELAQATGLTPTQVGNWFKNRRQRDR
Second: CFKVRTRSLLREWYLQDPYPNPSKKRELAQATGLTPTQVGNWFKNRRQRDR
The abundance fitness of the first is higher: -0.226 ± 0.31 for the first, -0.651 ± 0.071 for the second.

CFKWRTRSLLREWYLQDPYPNPSKKRELAQATGLTPTQVGNWFKNRRQRDR and CFKLRTRSLLREWYLQDPYPNPSKKRELAQATGLTPTQVGNWFKNRRQRDR are within error of each other in abundance fitness: -0.684 ± 0.16 for the first, -0.605 ± 0.17 for the second.

CFKRRTRSLLREWYLQDPYPNPSKKRELAQATGLTPTQVGNWFKNRRQRDR and CFKGRTRSLLREWYLQDPYPNPSKKRELAQATGLTPTQVGNWFKNRRQRDR are within error of each other in abundance fitness: -0.708 ± 0.06 for the first, -0.532 ± 0.13 for the second.

Compared with CFKKRTRSLLREWYLQDPYPNPSKKRELAQATGLTPTQVGNWFKNRRQRDR, CFKCRTRSLLREWYLQDPYPNPSKKRELAQATGLTPTQVGNWFKNRRQRDR is lower in abundance fitness: -0.152 ± 0.14 for the first, -0.685 ± 0.21 for the second.

CFKDRTRSLLREWYLQDPYPNPSKKRELAQATGLTPTQVGNWFKNRRQRDR and CFKMRTRSLLREWYLQDPYPNPSKKRELAQATGLTPTQVGNWFKNRRQRDR are within error of each other in abundance fitness: -0.532 ± 0.47 for the first, -0.178 ± 0.25 for the second.

CFKERCRSLLREWYLQDPYPNPSKKRELAQATGLTPTQVGNWFKNRRQRDR and CFKERFRSLLREWYLQDPYPNPSKKRELAQATGLTPTQVGNWFKNRRQRDR are within error of each other in abundance fitness: -0.533 ± 0.2 for the first, -0.504 ± 0.059 for the second.

Compared with CFKERMRSLLREWYLQDPYPNPSKKRELAQATGLTPTQVGNWFKNRRQRDR, CFKERNRSLLREWYLQDPYPNPSKKRELAQATGLTPTQVGNWFKNRRQRDR is lower in abundance fitness: -0.115 ± 0.049 for the first, -0.409 ± 0.21 for the second.

CFKERQRSLLREWYLQDPYPNPSKKRELAQATGLTPTQVGNWFKNRRQRDR and CFKERYRSLLREWYLQDPYPNPSKKRELAQATGLTPTQVGNWFKNRRQRDR are within error of each other in abundance fitness: -0.067 ± 0.21 for the first, -0.289 ± 0.3 for the second.

First: CFKERSRSLLREWYLQDPYPNPSKKRELAQATGLTPTQVGNWFKNRRQRDR
Second: CFKERHRSLLREWYLQDPYPNPSKKRELAQATGLTPTQVGNWFKNRRQRDR
The abundance fitness of the first is lower: -0.354 ± 0.091 for the first, 0.086 ± 0.31 for the second.

CFKERARSLLREWYLQDPYPNPSKKRELAQATGLTPTQVGNWFKNRRQRDR and CFKERKRSLLREWYLQDPYPNPSKKRELAQATGLTPTQVGNWFKNRRQRDR are within error of each other in abundance fitness: -0.268 ± 0.078 for the first, -0.513 ± 0.26 for the second.

Going from CFKERIRSLLREWYLQDPYPNPSKKRELAQATGLTPTQVGNWFKNRRQRDR to CFKERVRSLLREWYLQDPYPNPSKKRELAQATGLTPTQVGNWFKNRRQRDR, the abundance fitness falls from 0.288 ± 0.088 to 0.057 ± 0.046.

CFKERWRSLLREWYLQDPYPNPSKKRELAQATGLTPTQVGNWFKNRRQRDR and CFKERRRSLLREWYLQDPYPNPSKKRELAQATGLTPTQVGNWFKNRRQRDR are within error of each other in abundance fitness: -0.434 ± 0.079 for the first, -0.401 ± 0.072 for the second.

CFKERERSLLREWYLQDPYPNPSKKRELAQATGLTPTQVGNWFKNRRQRDR and CFKERGRSLLREWYLQDPYPNPSKKRELAQATGLTPTQVGNWFKNRRQRDR are within error of each other in abundance fitness: -0.287 ± 0.061 for the first, -0.192 ± 0.082 for the second.

In the case of CFKERLRSLLREWYLQDPYPNPSKKRELAQATGLTPTQVGNWFKNRRQRDR, the abundance fitness is reported as -0.16 ± 0.059.
